Source: patent publication CN114409782A (HUAI SHANGHAI BIOMEDICINE LTD COMPANY, dated 2022)

T1: IL13Ra2抗原 (in solution, Biacore) (UniProt Q14627 27-343, limits assumed)
T1 construct: also called IL13Rα2; 白介素13受体α2
T1 sequence (looked up): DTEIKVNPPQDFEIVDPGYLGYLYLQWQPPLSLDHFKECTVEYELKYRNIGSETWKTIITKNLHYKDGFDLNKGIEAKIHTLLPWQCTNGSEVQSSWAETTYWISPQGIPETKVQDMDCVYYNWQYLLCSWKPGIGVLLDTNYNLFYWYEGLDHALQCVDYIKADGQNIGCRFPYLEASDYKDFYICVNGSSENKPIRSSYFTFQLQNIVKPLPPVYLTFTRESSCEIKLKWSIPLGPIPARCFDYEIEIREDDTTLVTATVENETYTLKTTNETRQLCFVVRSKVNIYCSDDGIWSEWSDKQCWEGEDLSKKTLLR


Each binder was assayed against T1, IL13Ra2抗原 (in solution, Biacore) (assay: SPR (Biacore), antibody fixed on chip, IL13Ra2 in solution).

Kd [nM]	koff [s⁻¹]	kon [M⁻¹ s⁻¹]	Binder
16.1	0.00156	55300	抗IL13Ra2纳米抗体VHH-1 (VHH-mIgG2a Fc) (Fc fusion, not shown: mouse IgG2a Fc tag from vector C-4pCP.Stuffer-mCg2a-FC) QVQLVESGGGLVQPGGSLRLSCAASGFTLDYYAIAWFRQAPGKRREGVSCISSSEGSTNYADSVKGRFTISRDNAKNTVYLQMNSLKPEDTAVYYCAADSTGRCWARPLYEYDYRGQGTQVTVSS
16.6	0.00433	68300	抗IL13Ra2纳米抗体VHH-13 (VHH-mIgG2a Fc) (Fc fusion, not shown: mouse IgG2a Fc tag from vector C-4pCP.Stuffer-mCg2a-FC) QVQLVESGGGSVQAGGSLRLSCTSSRFTLDYYAIAWFRQAPGKRREGVSCISSSEGSTNYADSVKGRFTISRDNAKNTVYLQMNSLKPEDTAVYYCAADSTGRCWARPLYEYDYRGQGTQVTVSS
32.4	0.00066	65400	抗IL13Ra2纳米抗体VHH-7 (VHH-mIgG2a Fc) (Fc fusion, not shown: mouse IgG2a Fc tag from vector C-4pCP.Stuffer-mCg2a-FC) QVQLVESGGGLAHPGGRLRVTCTASGANLKNYAVGWFRQRPGKQREEVACLRVRYANTNKAPSVRERVHVFREENNNLVYMLMSDLTPEDTGIYYCAARPQQPSADCSLLANDYDNWGQGIQVTVSE
